We go through three substances from paper doi:10.1101/2021.07.28.453719.

In general, Kd refers to the constant that tells how readily two partners part at equilibrium. High values mean a looser complex, low ones a tighter complex.

Common to all, as to assay: ITC
Background: In ITC the heat of successive injections is recorded.

The target of experiment [1] is second bromodomain (BD2) of BRD4 (human).
In experiment [2] the target is BRD2-L108AzF mutant (photo-responsive bromodomain analogue) (human).
The target of experiment [3] is BRD3-L68AzF mutant (photo-responsive bromodomain analogue) (human) (UniProt Q15059).
In experiment [4] the target is BRDT-L61AzF mutant (photo-responsive bromodomain analogue) (human).
The target in experiment [5] is first bromodomain (BD1) of BRD2, wild type (human).
Experiment [6] has as its target first bromodomain (BD1) of BRDT, wild type (human).

“ILF3 variant peptide AKacGALLKacG (aa 99-106) 15 carrying L102A”: in experiment [1], the dissociation constant Kd stood at 57 µM. In other words, the double-digit micromolar range.

“diacetylated ILF3 peptide 10 (AKacGLLLKacG)” came in with a dissociation constant (Kd) in experiment [1] of 33 µM. Compared with the last substance, the Kd is about 1.7-fold lower.

As for “tetra-acetylated histone H4 peptide (H4Kac4) 2 (from UniProt P62805 2-22)”, the equilibrium dissociation constant (Kd) in experiment [2] was 93.5 µM; in experiment [3], 14.2 µM; in experiment [4], 13.5 µM; in experiment [5] it was 27.8 µM; in experiment [6], 13.7 µM.
